B1: Septin-12 (Homo sapiens), Q8IYM1 (parent)
chain: MDPLRRSPSPCLSSQPSSPSTPPCEMLGPVGIEAVLDQLKIKAMKMGFEFNIMVVGQSGLGKSTMVNTLFKSKVWKSNPPGLGVPTPQTLQLHSLTHVIEEKGVKLKLTVTDTPGFGDQINNDNCWDPILGYINEQYEQYLQEEILITRQRHIPDTRVHCCVYFVPPTGHCLRPLDIEFLQRLCRTVNVVPVIARADSLTMEEREAFRRRIQQNLRTHCIDVYPQMCFDEDINDKILNSKLRDRIPFAVVGADQEHLVNGRCVLGRKTKWGIIEVENMAHCEFPLLRDLLIRSHLQDLKDITHNIHYENYRVIRLNESHLLPRGPGWVNLAPASPGQLTTPRTFKVCRGAHDDSDDEF
partner: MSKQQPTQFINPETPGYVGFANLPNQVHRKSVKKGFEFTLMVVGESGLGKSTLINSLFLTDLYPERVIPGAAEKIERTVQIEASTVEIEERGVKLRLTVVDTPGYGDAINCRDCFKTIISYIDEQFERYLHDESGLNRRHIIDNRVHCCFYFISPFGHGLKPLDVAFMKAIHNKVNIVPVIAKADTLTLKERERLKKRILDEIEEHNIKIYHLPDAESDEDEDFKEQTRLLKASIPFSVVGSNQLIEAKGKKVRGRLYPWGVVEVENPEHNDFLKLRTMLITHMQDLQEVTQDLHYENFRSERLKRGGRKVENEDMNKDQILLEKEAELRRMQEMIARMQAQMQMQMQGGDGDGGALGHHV
B2: Septin-12 (Homo sapiens), Q8IYM1 (parent)
chain: B1 chain
partner: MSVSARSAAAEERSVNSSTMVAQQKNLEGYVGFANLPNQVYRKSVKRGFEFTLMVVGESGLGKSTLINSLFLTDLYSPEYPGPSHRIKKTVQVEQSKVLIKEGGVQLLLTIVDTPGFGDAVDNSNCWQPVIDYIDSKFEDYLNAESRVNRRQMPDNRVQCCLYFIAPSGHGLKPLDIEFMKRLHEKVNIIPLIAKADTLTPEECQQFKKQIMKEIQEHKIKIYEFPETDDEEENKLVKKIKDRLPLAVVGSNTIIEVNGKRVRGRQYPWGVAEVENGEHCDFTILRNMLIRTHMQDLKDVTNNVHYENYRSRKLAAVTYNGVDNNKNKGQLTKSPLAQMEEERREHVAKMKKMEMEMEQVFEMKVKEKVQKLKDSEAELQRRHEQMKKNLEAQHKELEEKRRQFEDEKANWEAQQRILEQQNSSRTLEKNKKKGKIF
B3: Septin-12 (Homo sapiens), Q8IYM1 (parent)
chain: B1 chain
partner: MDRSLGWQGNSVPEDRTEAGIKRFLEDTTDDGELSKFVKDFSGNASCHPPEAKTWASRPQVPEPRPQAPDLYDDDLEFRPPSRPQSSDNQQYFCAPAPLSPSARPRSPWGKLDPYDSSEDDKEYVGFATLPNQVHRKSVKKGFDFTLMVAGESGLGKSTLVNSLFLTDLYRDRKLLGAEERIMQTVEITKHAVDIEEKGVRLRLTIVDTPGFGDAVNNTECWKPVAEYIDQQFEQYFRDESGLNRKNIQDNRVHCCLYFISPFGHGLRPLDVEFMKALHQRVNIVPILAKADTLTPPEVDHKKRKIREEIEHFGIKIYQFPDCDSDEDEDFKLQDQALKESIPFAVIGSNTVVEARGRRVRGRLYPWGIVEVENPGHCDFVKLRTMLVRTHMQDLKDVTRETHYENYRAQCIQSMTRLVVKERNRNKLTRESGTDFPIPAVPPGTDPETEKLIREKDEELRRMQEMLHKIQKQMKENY
B4: Septin-12 (Homo sapiens), Q8IYM1 (parent)
chain: B1 chain
partner: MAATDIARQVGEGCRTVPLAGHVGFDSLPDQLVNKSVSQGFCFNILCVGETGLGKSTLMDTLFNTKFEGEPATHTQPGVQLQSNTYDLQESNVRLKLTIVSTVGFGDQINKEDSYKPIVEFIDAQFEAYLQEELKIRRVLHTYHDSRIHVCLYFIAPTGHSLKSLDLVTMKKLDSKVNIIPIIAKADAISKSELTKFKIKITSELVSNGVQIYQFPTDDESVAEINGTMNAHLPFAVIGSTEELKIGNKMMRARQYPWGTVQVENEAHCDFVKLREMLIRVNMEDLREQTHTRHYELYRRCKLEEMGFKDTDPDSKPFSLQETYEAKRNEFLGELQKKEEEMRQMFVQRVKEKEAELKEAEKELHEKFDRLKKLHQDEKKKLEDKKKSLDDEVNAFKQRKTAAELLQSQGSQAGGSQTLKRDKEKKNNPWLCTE

Variants of: B1
Conditions: with sept2_human SEPTIN2, Q15019

Row | effect of a mutation on the interaction | Variant
1 | disrupting interaction | D197N

Variants of: B2
Conditions: with sept7_human SEPTIN7, Q16181

Row | effect of a mutation on the interaction | Variant
2 | disrupting interaction strength | T89M
3 | disrupting interaction strength | D197N

Variants of: B2
Conditions: with sept7_human SEPTIN7, Q16181
Remark: another data set of the same source

Row | effect of a mutation on the interaction | Variant
4 | decreasing interaction | T89M
5 | disrupting interaction | D197N

Variants of: B3
Conditions: with sept4_human SEPTIN4, O43236

Row | effect of a mutation on the interaction | Variant
6 | disrupting interaction | D197N

Variants of: B4
Conditions: with sept6_human SEPTIN6, Q14141

Row | effect of a mutation on the interaction | Variant
7 | disrupting interaction | D197N
